In patent US20260151499A1, “ANTIBODY DERIVATIVE AND USE THEREOF” (TSINGHUA UNIVERSITY, priority 2023, published 2026):

Key:
[1] = biological target: T1, CD73 (Homo sapiens, UniProt P21589); assay: Octet BLI affinity for CD73, Ab-BN3 on protein A sensors; assay type: binding
T1 construct: His (Chis) (C); made in house; host or cells: 293 cells
T1 sequence (P21589 27-549 limits assumed): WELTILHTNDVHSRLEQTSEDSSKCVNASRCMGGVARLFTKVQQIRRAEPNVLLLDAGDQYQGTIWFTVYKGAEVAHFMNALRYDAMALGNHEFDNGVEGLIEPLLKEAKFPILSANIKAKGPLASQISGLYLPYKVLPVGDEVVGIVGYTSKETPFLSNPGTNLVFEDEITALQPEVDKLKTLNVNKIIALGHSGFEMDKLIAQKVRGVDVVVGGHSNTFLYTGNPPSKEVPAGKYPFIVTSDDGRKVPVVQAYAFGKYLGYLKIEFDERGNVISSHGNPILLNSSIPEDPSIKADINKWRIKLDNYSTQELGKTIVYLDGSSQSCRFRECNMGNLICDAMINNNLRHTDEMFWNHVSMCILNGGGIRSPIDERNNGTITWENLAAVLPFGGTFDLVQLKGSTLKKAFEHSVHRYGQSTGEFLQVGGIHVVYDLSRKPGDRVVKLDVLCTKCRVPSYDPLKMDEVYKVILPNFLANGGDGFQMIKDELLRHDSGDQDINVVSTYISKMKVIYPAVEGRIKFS

[2] = biological target: T1, CD73; assay: CD73 inhibition, AMP hydrolysis, malachite green phosphate assay; assay type: biochemical; conditions: calculated from the inhibition curves
[3] = biological target: T2, NaV1.2 (Homo sapiens, UniProt Q99250); assay: Whole-cell patch clamp, HEK293-NaV1.2 cells; assay type: cell-based; conditions: tested up to 500 nM
T2 construct: expressed in transfected cells; host or cells: HEK293

[4] = biological target: T3, NaV1.7 (Homo sapiens, UniProt Q15858); assay: Whole-cell patch clamp, HEK293-NaV1.7 cells; assay type: cell-based; conditions: tested up to 500 nM where selectivity
T3 construct: expressed in transfected cells; host or cells: HEK293

[5] = biological target: T4, NaV1.6 (Homo sapiens, UniProt Q9UQD0); assay: Whole-cell patch clamp, HEK293-NaV1.6 cells; assay type: cell-based
T4 construct: expressed in transfected cells; host or cells: HEK293
T4 sequence (Q9UQD0 whole entry): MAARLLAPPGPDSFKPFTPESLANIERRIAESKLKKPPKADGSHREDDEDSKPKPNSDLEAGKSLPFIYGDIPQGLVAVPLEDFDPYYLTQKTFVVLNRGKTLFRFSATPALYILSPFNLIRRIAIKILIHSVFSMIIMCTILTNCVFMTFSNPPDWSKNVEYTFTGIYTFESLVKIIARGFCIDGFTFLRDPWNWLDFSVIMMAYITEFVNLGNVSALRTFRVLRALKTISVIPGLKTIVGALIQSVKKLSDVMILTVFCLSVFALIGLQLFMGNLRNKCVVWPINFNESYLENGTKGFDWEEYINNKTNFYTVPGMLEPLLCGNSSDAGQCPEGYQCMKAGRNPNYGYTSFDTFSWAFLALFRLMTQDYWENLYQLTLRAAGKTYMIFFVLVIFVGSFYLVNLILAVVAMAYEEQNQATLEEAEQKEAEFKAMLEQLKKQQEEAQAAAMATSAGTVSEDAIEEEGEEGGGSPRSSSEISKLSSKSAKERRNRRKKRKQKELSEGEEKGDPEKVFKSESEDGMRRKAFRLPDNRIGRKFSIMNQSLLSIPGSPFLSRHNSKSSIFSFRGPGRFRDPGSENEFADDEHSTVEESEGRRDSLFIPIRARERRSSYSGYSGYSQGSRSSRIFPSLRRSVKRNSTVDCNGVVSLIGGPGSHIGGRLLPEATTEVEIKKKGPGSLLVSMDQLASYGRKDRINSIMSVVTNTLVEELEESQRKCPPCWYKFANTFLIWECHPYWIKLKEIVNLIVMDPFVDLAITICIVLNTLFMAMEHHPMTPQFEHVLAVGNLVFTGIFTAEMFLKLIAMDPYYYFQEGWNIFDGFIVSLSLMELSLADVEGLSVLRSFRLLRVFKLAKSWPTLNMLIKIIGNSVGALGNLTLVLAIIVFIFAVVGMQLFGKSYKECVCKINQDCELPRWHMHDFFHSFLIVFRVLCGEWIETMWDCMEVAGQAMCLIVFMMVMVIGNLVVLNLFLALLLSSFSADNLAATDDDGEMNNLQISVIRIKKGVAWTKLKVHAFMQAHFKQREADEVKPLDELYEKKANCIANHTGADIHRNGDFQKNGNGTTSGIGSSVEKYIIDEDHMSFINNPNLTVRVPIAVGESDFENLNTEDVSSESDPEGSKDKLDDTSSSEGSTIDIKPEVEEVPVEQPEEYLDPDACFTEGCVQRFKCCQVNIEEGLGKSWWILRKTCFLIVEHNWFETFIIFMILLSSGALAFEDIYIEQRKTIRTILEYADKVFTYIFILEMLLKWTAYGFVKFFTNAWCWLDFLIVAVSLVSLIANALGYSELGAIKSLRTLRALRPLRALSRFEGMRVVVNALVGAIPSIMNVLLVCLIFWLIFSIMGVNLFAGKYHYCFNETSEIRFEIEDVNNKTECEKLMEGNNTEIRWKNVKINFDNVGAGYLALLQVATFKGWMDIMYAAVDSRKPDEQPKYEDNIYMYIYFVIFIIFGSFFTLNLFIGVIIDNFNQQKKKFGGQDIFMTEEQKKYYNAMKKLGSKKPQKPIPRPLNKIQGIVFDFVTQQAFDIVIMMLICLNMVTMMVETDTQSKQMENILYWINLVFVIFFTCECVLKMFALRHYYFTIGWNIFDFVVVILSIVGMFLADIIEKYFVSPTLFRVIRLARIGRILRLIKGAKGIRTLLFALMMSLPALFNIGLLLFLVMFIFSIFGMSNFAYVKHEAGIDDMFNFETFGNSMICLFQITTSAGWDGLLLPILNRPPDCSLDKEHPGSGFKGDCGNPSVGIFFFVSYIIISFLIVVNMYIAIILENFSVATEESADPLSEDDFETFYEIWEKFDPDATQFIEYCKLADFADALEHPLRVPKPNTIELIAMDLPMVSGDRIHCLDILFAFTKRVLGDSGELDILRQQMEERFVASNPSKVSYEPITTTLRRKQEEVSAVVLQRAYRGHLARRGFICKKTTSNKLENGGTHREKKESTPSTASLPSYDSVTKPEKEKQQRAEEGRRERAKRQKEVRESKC

T2 sequence (Q99250 whole entry): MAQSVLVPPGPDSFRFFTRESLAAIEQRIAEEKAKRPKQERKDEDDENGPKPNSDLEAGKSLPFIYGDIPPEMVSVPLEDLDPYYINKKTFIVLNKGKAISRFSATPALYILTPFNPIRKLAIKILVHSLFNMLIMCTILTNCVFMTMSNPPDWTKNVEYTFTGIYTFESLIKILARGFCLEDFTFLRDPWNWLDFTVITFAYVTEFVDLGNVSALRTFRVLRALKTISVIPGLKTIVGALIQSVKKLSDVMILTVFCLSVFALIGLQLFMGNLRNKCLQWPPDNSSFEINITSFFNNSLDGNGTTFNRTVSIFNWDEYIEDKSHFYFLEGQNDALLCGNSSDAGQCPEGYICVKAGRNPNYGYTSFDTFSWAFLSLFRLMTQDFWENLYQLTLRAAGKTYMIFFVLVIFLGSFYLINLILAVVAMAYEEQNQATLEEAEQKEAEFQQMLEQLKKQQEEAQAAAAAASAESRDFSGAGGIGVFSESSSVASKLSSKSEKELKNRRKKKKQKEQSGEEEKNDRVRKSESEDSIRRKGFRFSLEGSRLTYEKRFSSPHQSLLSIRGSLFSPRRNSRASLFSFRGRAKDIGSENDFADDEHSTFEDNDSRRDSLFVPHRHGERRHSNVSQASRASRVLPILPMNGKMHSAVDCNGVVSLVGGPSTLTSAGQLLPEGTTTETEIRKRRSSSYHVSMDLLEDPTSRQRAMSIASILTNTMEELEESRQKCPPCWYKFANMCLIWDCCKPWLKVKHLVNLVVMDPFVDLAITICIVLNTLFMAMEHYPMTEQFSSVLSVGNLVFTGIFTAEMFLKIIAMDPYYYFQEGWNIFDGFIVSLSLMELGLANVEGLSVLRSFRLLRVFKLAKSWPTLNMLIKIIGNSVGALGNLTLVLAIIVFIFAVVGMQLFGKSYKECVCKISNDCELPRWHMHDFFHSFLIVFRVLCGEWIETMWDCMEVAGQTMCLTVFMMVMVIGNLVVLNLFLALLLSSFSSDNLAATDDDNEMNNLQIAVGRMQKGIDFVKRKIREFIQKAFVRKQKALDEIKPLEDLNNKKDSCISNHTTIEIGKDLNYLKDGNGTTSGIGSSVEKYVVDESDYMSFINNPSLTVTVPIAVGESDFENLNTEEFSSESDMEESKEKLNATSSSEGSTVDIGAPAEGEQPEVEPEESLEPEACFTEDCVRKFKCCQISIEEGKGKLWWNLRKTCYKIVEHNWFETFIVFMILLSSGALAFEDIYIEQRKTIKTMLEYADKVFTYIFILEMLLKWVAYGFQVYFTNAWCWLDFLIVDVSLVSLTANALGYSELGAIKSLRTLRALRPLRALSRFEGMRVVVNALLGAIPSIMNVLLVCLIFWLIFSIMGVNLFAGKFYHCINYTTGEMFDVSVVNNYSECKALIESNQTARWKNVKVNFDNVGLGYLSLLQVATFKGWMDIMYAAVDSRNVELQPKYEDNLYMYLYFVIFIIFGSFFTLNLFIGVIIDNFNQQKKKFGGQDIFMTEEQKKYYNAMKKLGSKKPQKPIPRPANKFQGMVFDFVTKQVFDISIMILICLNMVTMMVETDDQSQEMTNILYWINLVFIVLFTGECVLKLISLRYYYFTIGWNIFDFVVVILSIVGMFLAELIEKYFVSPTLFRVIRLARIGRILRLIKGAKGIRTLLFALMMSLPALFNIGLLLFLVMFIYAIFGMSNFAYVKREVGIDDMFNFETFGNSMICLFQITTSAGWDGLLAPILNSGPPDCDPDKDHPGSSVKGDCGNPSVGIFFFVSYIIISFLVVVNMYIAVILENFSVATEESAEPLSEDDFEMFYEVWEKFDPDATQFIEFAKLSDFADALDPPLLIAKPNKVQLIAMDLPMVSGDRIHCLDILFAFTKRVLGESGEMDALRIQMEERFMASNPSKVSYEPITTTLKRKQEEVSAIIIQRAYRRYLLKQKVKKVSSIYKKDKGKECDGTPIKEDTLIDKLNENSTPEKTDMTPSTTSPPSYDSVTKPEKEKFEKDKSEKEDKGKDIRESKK

B1: ABN3-2G-BN3: IgG1 antibody ABN3-2G conjugated to BN3 (conjugate)
VH: EVQLVESGGGLVQPGGSLRLSCAASGITFGSYTMSWVRQAPGKGLEWIGTVHYTGKTFYSPSLKSRVTISADTSKNTAYLQMNSLRAEDTAVYYCARGRDFGEPPYVRAFDIWGQGTLVTVSS
VL: DIQMTQSPSSLSASVGDRVTITCQASHDISKYLNWYQQKPGKAPKLLIYDASNLETGVPSRFSGSRSGTDFTLTISSLQPEDFATYYCQQXYTTPPTFGQGTKLEI
modifications: not fully specified; non-natural residues
Kdis [1]: 0.000271 s⁻¹
Kon [1]: 3.05 × 10^5 1/ms

B2: 10A7-BN3: IgG1 antibody 10A7 conjugated to BN3 (conjugate)
VH: EVQLVESGGGLVQPGGSLRLSCAASGFAFSSYSMSWVRQAPGKGLEWIGSIYYSGSTYYNPSLKSRVTISADTSKNTAYLQMNSLRAEDTAVYYCARNSGFETLDYWGQGTLVTVSS
VL: DIQMTQSPSSLSASVGDRVTITCRASQGISRWLAWYQQKPGKAPNLLIYGASTLQSGVPPRFSGSRSGTDFTLTISSLQPEDFATYYCQQXYTTPPTFGQGTKLEI
modifications: non-natural residues
IC90 [2]: 2.9 nM
Kdis [1]: 0.000191 s⁻¹
Kon [1]: 2.15 × 10^5 1/ms

B3: 5A5-PEG3-ASF: antibody 5A5 conjugated with ASF-PEG3-DBCO (conjugate)
VH: EVQLVESGGGLVQPGGSLRLSCAASGFPFSGHWMHWVRQAPGKGLEWVSGISWNGGTTGYADSVKGRFTISRDNAKNSVYLQMNSLRAEDTAVYYCARDDYGGDSFDSWGQGTLVTVSS
VL: DIQMTQSPSSLSASVGDRVTITCRASQSISDWLAWYQQKPGKAPKLLIYAASSLQSGVPSRFSGSRSGTDFTLTISSLQPEDFATYYCQQXYTTPPTFGQGTKLEI
modifications: non-natural residues
notes: antibody 5A5 conjugated with ASF-PEG3-DBCO
inhibitory activity against NaV1.2 (in words) [3]: no inhibitory activity
inhibitory activity against NaV1.7 (in words) [4]: no inhibitory activity
improvement of NaV1.6 inhibitory activity over ASF-PEG3-DBCO [5]: more than 20 fold
